B1: 3B4 scFv (scFv)
chain: DIQMTQSPSSLSASVGDRVTITCRASQDVGIYVNWFQQKPGKAPRRLIYRATNLADGVPSRFSGSRSGTDFTLTISSLQPEDFATYYCLEFDEHPLTFGGGTKVEIKDGGGSGGGGSGGGGSSEVQLVESGGGLVQPGGSLRLSCAASGFTFNNYWMTWVRQAPGKGLEWVASIDNSGDNTYYPDSVKDRFTISRDNAKNSLYLQMNSLRAEDTAVYYCARGGDIREGLRYWGQGTLVTVSS
B2: 6D5 scFv (scFv)
chain: DIQMTQSPSSLSASVGDRVTITCRASQDVGIYVNWFQQKPGKAPRRLIYRATNLADGVPSRFSGSRSGTDFTLTISSLQPEDFATYYCLEFDEHPLTFGGGTKVEIKDGGGSGGGGSGGGGSSEVQLVESGGGLVQPGGSLRLSCAASGFTFNNYWMTWVRQAPGKGLEWVASIDNSGDNTYYPDSVKDRFTISRDNAKNSLYLQMNSLRAEDTAVYYCARGGDIKVSLDQWGQGTLVTVSS

Molecular target: T1, biotin labeled hRAGE-Fc (human, UniProt Q15109 24-344, limits assumed, biotin labeled (site not stated))
T1 construct: Biotinylated in selections and HTRF; also called Biotin-labeled RAGE-Fc; biotinylated RAGE-FC; not shown: Fc part, not described
T1 sequence (Q15109 24-344 limits assumed): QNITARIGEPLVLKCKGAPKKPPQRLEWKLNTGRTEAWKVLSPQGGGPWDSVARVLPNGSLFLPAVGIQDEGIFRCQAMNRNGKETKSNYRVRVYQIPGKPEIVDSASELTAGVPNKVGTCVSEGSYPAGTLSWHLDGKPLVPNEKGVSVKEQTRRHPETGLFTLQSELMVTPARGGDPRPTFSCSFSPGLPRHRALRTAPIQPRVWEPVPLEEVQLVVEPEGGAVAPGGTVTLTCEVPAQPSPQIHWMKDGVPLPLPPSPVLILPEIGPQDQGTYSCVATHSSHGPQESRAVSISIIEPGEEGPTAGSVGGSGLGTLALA
Assay: HTRF competition on biotinylated hRAGE-Fc; scFv titrated; competitor Eu-cryptate-labeled parental XT-M4 antibody

Binder | IC50
B1 | 1.31 nM
B2 | 1.46 nM

Reference: patent US20100113304A1 (Pfizer, published 2010)
